# In patent US20040043420A1, “Method of identifying conformation-sensitive binding peptides and uses thereof” (priority 2003, published 2004):
# Key:
# [1] = target: T1, glucocorticoid receptor (GR) (Homo sapiens, UniProt P04150); experiment: Mammalian cell (Huh-7) based peptide/glucocorticoid receptor interaction assay, luciferase; conditions: all ligands (agonists, partial agonists, and antagonists)
# T1 construct: in the yeast based system using full-length receptor; expressed in transfected cells; host or cells: yeast
# T1 sequence (P04150 1-777): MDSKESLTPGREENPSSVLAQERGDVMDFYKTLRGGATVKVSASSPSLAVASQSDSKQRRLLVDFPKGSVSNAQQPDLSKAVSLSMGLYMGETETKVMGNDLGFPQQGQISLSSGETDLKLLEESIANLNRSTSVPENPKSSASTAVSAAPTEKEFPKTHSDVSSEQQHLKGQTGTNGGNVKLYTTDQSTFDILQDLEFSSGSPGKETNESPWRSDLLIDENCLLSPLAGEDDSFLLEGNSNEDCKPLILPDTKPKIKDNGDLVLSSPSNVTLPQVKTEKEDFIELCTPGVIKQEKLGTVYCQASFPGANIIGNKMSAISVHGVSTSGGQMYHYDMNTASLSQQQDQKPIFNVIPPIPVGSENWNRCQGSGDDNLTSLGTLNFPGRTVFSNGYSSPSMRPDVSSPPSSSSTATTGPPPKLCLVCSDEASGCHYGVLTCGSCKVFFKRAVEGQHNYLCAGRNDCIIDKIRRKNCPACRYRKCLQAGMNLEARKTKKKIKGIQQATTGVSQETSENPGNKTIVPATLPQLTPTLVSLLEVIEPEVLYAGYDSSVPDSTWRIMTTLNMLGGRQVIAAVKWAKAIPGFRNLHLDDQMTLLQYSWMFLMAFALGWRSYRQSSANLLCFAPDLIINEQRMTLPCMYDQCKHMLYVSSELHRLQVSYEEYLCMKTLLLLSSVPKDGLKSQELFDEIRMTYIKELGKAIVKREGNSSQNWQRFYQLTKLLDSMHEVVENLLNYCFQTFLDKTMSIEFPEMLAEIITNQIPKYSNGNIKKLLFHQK
# Description: (§1) We have performed a limited amount of in vivo screenings for peptides to GR in the yeast based system using full-length receptor and either dexamethasone or medroxyprogesterone acetate as ligands. We have a single peptide sequence that we have followed up on based on its specificity profile in yeast. This peptide was isolated on MPA liganded GR, and is termed GRMPA. Its sequence is as follows: […] (SEQ ID NO:268).
# We have isolated numerous peptides using phage display to the GR ligand binding domain and have formatted cell based assays in mammalian cells for screening large compound sets. We have formatted the assay as stated above for 96-well plates and for 384-well plates. To format the assay to 384-well plates the number of cells per well were scaled down to 5,000 Huh-7 cells per well. Similar ratios of DNA constructs and lipection reagents were used in both assays for transfections prior to seeding the cells into the assay plates. We have also carried out a screen of a 60,000 compound set with one of the phage display isolated peptides in this mammalian cell based format. This peptide interacts with the glucocorticoid receptor in the presence of both agonists (e.g. fluticasone propionate and dexamethasone) and antagonists (RU486). For the compound screen cells were transfected in suspension with DNA constructs as described above prior to seeding 5,000 cells per well. […]
# [2] = target: T1, glucocorticoid receptor (GR); experiment: Yeast-based two-hybrid test of peptide interaction with full-length glucocorticoid receptor; type: cell-based
# Description: as §1
sequence,measurement,setting,value
EFVARYGQLLGWRHPCS [GRMPA],Interaction with GR in mammalian cells in the presence of ligands,[1],interacted in the presence of all ligands
same,Interaction with GR in yeast in the presence of full agonists,[2]; fluticasone propionate and dexamethasone,not full agonists
same,Interaction with GR in yeast in the presence of partial agonists and antagonists,"[2]; partial agonists MPA, cortivazol, deoxycorticosterone, antagonist RU486",interacted
